Results: patent US20100203055A1, “HAIR REGROWTH PROMOTER” (priority 2007, published 2010)
Entries after “also recorded” stand apart in the source; their conditions may differ.

B1: FGF18: fibroblast growth factor 18 protein; secreted polypeptide of 181 amino acids; commercial FGF18 (PeproTech) used (protein)
chain: EENVDFRIHVENQTRARDDVSRKQLRLYQLYSRTSGKHIQVLGRRISARGEDGDKYAQLLVETDTFGSQVRIKGKETEFYLCMNRKGKLVGKPDGTSKECVFIEKVLENNYTALMSAKYSGWYVGFTKKGRPRKGPKTRENQQDVHFMKRYPKGQPELQKPFKYTTVTKRSRRIRPTHPA
B2: d16: partial peptide of mouse FGF18, 16 amino acids deleted from N-terminus; SEQ ID NO: 17 (protein)
chain: MARDDVSRKQLRLYQLYSRTSGKHIQVLGRRISARGEDGDKYAQLLVETDTFGSQVRIKGKETEFYLCMNRKGKLVGKPDGTSKECVFIEKVLENNYTALMSAKYSGWYVGFTKKGRPRKGPKTRENQQDVHFMKRYPKGQAELQKPFKYTTVTKRSRRIRPTHPG
modifications: truncation mutant polypeptide of mouse FGF18(d16)
B3: d22: partial peptide of mouse FGF18, 22 amino acids deleted from N-terminus; SEQ ID NO: 19 (protein)
chain: MRKQLRLYQLYSRTSGKHIQVLGRRISARGEDGDKYAQLLVETDTFGSQVRIKGKETEFYLCMNRKGKLVGKPDGTSKECVFIEKVLENNYTALMSAKYSGWYVGFTKKGRPRKGPKTRENQQDVHFMKRYPKGQAELQKPFKYTTVTKRSRRIRPTHPG
modifications: truncation mutant polypeptide of mouse FGF18(d22)
B4: d37: partial peptide of mouse FGF18, 37 amino acids deleted from N-terminus; SEQ ID NO: 20 (protein)
chain: MKHIQVLGRRISARGEDGDKYAQLLVETDTFGSQVRIKGKETEFYLCMNRKGKLVGKPDGTSKECVFIEKVLENNYTALMSAKYSGWYVGFTKKGRPRKGPKTRENQQDVHFMKRYPKGQAELQKPFKYTTVTKRSRRIRPTHPG
modifications: truncation mutant polypeptide of mouse FGF18(d37)
B5: d48: partial peptide of mouse FGF18, 48 amino acids deleted from N-terminus; SEQ ID NO: 21 (protein)
chain: MARGEDGDKYAQLLVETDTFGSQVRIKGKETEFYLCMNRKGKLVGKPDGTSKECVFIEKVLENNYTALMSAKYSGWYVGFTKKGRPRKGPKTRENQQDVHFMKRYPKGQAELQKPFKYTTVTKRSRRIRPTHPG
modifications: truncation mutant polypeptide of mouse FGF18(d48)
B6: d77: partial peptide of mouse FGF18, 77 amino acids deleted from N-terminus; SEQ ID NO: 23 (protein)
chain: MTEFYLCMNRKGKLVGKPDGTSKECVFIEKVLENNYTALMSAKYSGWYVGFTKKGRPRKGPKTRENQQDVHFMKRYPKGQAELQKPFKYTTVTKRSRRIRPTHPG
modifications: truncation mutant polypeptide of mouse FGF18(d77)
B7: d95: partial peptide of mouse FGF18, 95 amino acids deleted from N-terminus; SEQ ID NO: 24 (protein)
chain: MGTSKECVFIEKVLENNYTALMSAKYSGWYVGFTKKGRPRKGPKTRENQQDVHFMKRYPKGQAELQKPFKYTTVTKRSRRIRPTHPG
modifications: truncation mutant polypeptide of mouse FGF18(d95)

Assays:
[1] = tested on: hair follicle growth; experiment: Hair growth inhibiting effect by continuous administration of FGF18 in anagen phase-induced C3H/HeN mice; assay type: in vivo, mouse
Experimental: In order to examine the effect of FGF18 in vivo on hair follicle growth, FGF18 protein dissolved in phosphate buffered physiological saline (PBS) was administered to hair follicle anagen phase-induced mice. Briefly, dorsal hair of 50 day-old C3H/HeN male mice in telogen phase was depilated gently with fingers to thereby induce the start of hair follicle anagen phase. Then, FGF18 solution was injected into the dorsal skin subcutaneously from the vicinity of the tail (1 μg of FGF18 per mouse). The mice were maintained on a diet and water ad libitum. Starting from this day, FGF18 solution was injected subcutaneously into the dorsal skin every day at about the same time for consecutive 8 days. The control group received injection of PBS instead of FGF18. Nine days after the initial injection, the mice were euthanized under anesthesia. Full thickness skin samples were excised from the dorsal part and embedded in paraffin. The thus embedded skin samples were sliced into 4 μm thick sections with a microtome, stained with hematoxylin and observed under microscope.

[2] = tested on: hair follicles; settings: single administration to mouse skin in telogen phase; Non-Patent Document 19 and Patent Document 2; cited from earlier work
[3] = tested on: human dermal papilla cells (HFDP); experiment: Effect of FGF18 on gene expression of hair follicle growth promoting factors in dermal papilla cells; assay type: cell-based; settings: dermal papilla cells cultured 24 hr with FGF18, then medium deprived of FGF18, versus continued FGF18-containing medium
Experimental: Cultured human dermal papilla cells (HFDP; from adult human scalp; Toyobo) were subcultured in HFDP growth medium (20% fetal bovine serum-containing basal medium for dermal papilla cell; Toyobo) and used in experiments within two passages. The cells were treated with trypsin and seeded in collagen-coated dishes (Sumilon; 6 cm in diameter) at 4×10^5 cells/dish. The cells were maintained at 37° C. in HFDP medium. On the next day, the medium was exchanged for HEK medium (EpiLife™, 0.06 mM CaCl2, 10 μg/ml insulin, 0.1 ng/ml hEGF, 0.5 μg/ml hydrocortisone, 0.4% BPE), and then FGF18 was added to the medium. After the cells were cultured for 24 hr, the medium was exchanged for FGF18 free medium in the test sample group (“-FGF18”). The control group (“Control”) was cultured continuously in the FGF18-containing medium. Subsequently, the cells were harvested and the mRNA was extracted and purified. The expression levels of mRNA from VEGF (known as a hair follicle growth promoting factor) and noggin (known as a hair growth inhibiting factor) contained in the resultant mRNA were analyzed.

[4] = tested on: FGFR3c; experiment: Inhibition of FGF18-stimulated DNA synthesis (cell growth) in FGFR3c/BaF3 cells by FGF18 partial peptides; assay type: cell-based, mouse
Description: (§1) According to teachings disclosed in literature, the FGF receptor genes FGFR1c, FGFR2c, FGFR3c and FGFR4 were respectively introduced by means of genetic engineering into Ba/F3 cell strain (obtained from RIKEN BRC) which is mouse IL-3-dependent proB cell to thereby prepare cells on whose surface FGFR was compulsively expressed (Ornitz, D M., Xu, J., Colvin, J S., McEwen, D G, MacArthur, C A., Coulier, E, Gao, G. and Goldfarb, M., 1996. Receptor specificity of the fibroblast growth factor family. J. Biol. Chem. 271(25):15292-15297; Yoneda, A., Asada, M., Oda, Y, Suzuki, M. and Imamura, T., 2000. Engineering of an FGF-proteoglycan fusion protein with heparin-independent, mitogenic activity. Nat. Biotec. 18(6):641-644).
(§2) Using these cells, the antagonist activity of test samples [whether or not test samples inhibit the DNA synthesis of FGF18-stimulated cell (this is taken as 100%)] was examined while stimulating each receptor with 30 ng/ml FGF18, in the co-presence of each partial peptide of FGF18 at 1 μg/ml (FIG. 3A) or at 100 ng/ml (FIG. 3B). Briefly, an activity that inhibits the cell growth stimulating effect of FGF18 was analyzed. Correspondence between individual columns and test samples is as described below.

[5] = target: T1, FGFR4 (Homo sapiens, UniProt P22455); experiment: Inhibition of FGF18-stimulated DNA synthesis (cell growth) in FGFR4/BaF3 cells by FGF18 partial peptides; assay type: cell-based, mouse; settings: test sample 1 μg/ml, 30 ng/ml FGF18, FIG. 3A
T1 construct: expressed in transfected cells; host or cells: Ba/F3 (mouse IL-3-dependent proB cell); R4/Ba/F3 cells under G-418
Description: as §1, §2

[6] = test sample 100 ng/ml, 30 ng/ml FGF18, FIG. 3B
[7] = test sample 1 μg/ml, 30 ng/ml FGF18, FIG. 3A

T1 sequence (P22455 22-802, species assumed): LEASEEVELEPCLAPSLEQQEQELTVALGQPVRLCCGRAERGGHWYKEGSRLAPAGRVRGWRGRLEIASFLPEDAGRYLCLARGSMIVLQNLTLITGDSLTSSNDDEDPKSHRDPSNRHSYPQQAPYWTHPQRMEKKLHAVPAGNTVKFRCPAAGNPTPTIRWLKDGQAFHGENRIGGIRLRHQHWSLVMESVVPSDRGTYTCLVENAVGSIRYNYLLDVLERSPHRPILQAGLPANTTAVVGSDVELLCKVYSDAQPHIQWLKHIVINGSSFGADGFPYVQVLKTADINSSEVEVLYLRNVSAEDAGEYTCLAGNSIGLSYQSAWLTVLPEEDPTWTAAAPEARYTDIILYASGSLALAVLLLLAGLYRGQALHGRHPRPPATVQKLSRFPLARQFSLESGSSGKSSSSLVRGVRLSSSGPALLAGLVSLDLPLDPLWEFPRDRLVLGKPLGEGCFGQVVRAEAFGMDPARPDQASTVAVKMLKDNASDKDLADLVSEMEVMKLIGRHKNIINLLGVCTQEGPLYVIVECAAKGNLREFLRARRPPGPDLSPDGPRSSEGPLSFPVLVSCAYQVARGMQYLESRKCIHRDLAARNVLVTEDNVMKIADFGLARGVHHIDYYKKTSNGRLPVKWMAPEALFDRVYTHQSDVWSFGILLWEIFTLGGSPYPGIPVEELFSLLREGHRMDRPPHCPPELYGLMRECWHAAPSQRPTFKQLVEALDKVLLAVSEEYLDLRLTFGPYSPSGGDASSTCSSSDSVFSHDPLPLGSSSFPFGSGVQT

Molecule	inhibition of the activity of FGF18 on FGFR3c/BaF3 cells [4, 7]	inhibition of the activity of FGF18 on FGFR4/BaF3 cells [5]	further results
B1	–	–	hair growth / hair follicle growth ([1]; 1 μg FGF18 per mouse subcutaneously once a day for 8 days after depilation, observed at day 9, versus PBS): hair growth is strongly inhibited; also recorded: hair growth was markedly inhibited; growth of hair follicles after stopping FGF18 administration ([1]; continuous administration under the same conditions, then stopped and mice raised thereafter): growth of hair follicles occurred; hair regrowth after single administration [2]: induces hair regrowth; expression level of VEGF mRNA [3]: 4.8 fold; expression level of noggin mRNA [3]: 3.5 fold
B2	strongly inhibit	–	inhibition of the activity of FGF18 on FGFR3c/BaF3 cells [4, 6]: strongly inhibit
B3	strongly inhibit	strongly inhibit	–
B4	strongly inhibit	–	–
B5	strongly inhibit	strongly inhibit	–
B6	strongly inhibit	strongly inhibit	–
B7	strongly inhibit	strongly inhibit	inhibition of the activity of FGF18 on FGFR3c/BaF3 cells [4, 6]: strongly inhibit
